Experimental data: US20230220589A1

B1: engineered M44-A binder (SEQ ID NO: 42) (designed binder, not shown: small tags and cut ends; large carriers)
chain: QVSVQPNFQQDKFLGRWFVAGLASNSSWDREKVAALSGAKMVVAPATDGGLNVTRTMLRKNQCETYTGLLQPAGSLGSYSWRSPHPGSTGSESVVETDYDQYALVYGQGSKGPGEDLRAAALWSRTQTPRAELKEKFTAFSKAQGFTEDTIVFLPQTDKCMTEQ
B2: engineered M44-L binder (SEQ ID NO: 31) (designed binder, not shown: small tags and cut ends; large carriers)
chain: QDSTQNLIPAPPLISVPLQPGFWTERFQGRWFLVGFAGNAVQKERQSRLTMQSLILELQEDNSYNITAINVRGQGCRYIISTLVPSSRPGQFTLGNIHSYPQIQSLDVQVADTDYDQFAMVFLQGTSENKQYFEVALAGRTKGLSDELKERFVSFAKSLGLKDNNIVFSVPTDQCIDN
B3: engineered M44-L binder (SEQ ID NO: 21) (designed binder, not shown: small tags and cut ends; large carriers)
chain: QVSVQPNFQQDKFLGRWFYAGHASNSSWYREKVAALSMAKLVVAPATDGGLNATETFLRKNQCETITSLLQPAGSLGSYSSRSPHGGSTWSTSVVETDYDQYALLYLQGSKGPGEDFRGAILASRTQTPRAELKEKFTAFSKAQGFTEDTIVFLPQTDKCMTEQ

The binders below were run against M44-modified P NTAA target peptides (assay: encoding assay; P2 E;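 also: fraction of recording tags encoded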).

Binder | encoding yield
B1 | 0.05
B2 | 0.03
B3 | 0.01

The binders below were run against M44-modified Q NTAA target peptides (assay: encoding assay; P2 E).

Binder | encoding yield
B1 | 0.03
B2 | 0.02
B3 | 0.01

The binders below were run against M44-modified A NTAA target peptides (M44-A-P2-peptide) (assay: encoding assay; P2 E).

Binder | encoding yield
B1 | 0.05
B2 | 0.03
B3 | 0.01

These binders were tested against M44-modified F NTAA target peptides (M44-F-P2-peptide) (assay: encoding assay; P2 E;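 also: fraction of recording tags encoded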).

Binder | encoding yield
B1 | 0.02
B2 | 0.01
B3 | 0

Each binder was assayed against M44-modified I NTAA target peptides (M44-I-P2-peptide) (assay: encoding assay; P2 E).

Binder | encoding yield
B1 | 0.02
B2 | 0.01
B3 | 0

What follows are binders tested against M44-modified V NTAA target peptides (assay: encoding assay; P2 E;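 also: fraction of recording tags encoded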).

Binder | encoding yield
B1 | 0.06
B2 | 0.02
B3 | 0.01

Each binder was assayed against M44-modified W NTAA target peptides (assay: encoding assay; P2 E;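 also: fraction of recording tags encoded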).

Binder | encoding yield
B1 | 0.04
B2 | 0.03
B3 | 0.01

Each binder was assayed against M44-modified M NTAA target peptides (assay: encoding assay; P2 E).

Binder | encoding yield
B1 | 0.01
B2 | 0.01
B3 | 0

What follows are binders tested against M44-modified L NTAA target peptides (M44-L-P2-peptide) (assay: encoding assay; P2 E;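 also: fraction of recording tags encoded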).

Binder | encoding yield
B1 | 0.04
B2 | 0.03
B3 | 0.01

These binders were tested against M44-modified S NTAA target peptides (assay: encoding assay; P2 E).

Binder | encoding yield
B1 | 0.02
B2 | 0.03
B3 | 0.01

These binders were tested against M44-modified H NTAA target peptides (assay: encoding assay; P2 E).

Binder | encoding yield
B1 | 0.03
B2 | 0.02
B3 | 0.01

Each binder was assayed against M44-modified Y NTAA target peptides (M44-Y-P2-peptide) (assay: encoding assay; P2 E;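 also: fraction of recording tags encoded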).

Binder | encoding yield
B1 | 0.06
B2 | 0.05
B3 | 0.02

What follows are binders tested against M44-modified D NTAA target peptides (assay: encoding assay; P2 E;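 also: fraction of recording tags encoded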).

Binder | encoding yield
B1 | 0.03
B2 | 0.02
B3 | 0.01

What follows are binders tested against M44-modified N NTAA target peptides (assay: encoding assay; P2 E).

Binder | encoding yield
B1 | 0.02
B2 | 0.01
B3 | 0.01

The binders below were run against M44-modified E NTAA target peptides (assay: encoding assay; P2 E;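 also: fraction of recording tags encoded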).

Binder | encoding yield
B1 | 0.02
B2 | 0.02
B3 | 0.01

Each binder was assayed against M44-modified T NTAA target peptides (assay: encoding assay; P2 E).

Binder | encoding yield
B1 | 0.03
B2 | 0.02
B3 | 0.01

The binders below were run against M44-modified P NTAA target peptides (assay: encoding assay; P2 H;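 also: fraction of recording tags encoded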).

Binder | encoding yield
B1 | 0.05
B2 | 0.03
B3 | 0.01

What follows are binders tested against M44-modified Q NTAA target peptides (assay: encoding assay; P2 H).

Binder | encoding yield
B1 | 0.05
B2 | 0.03
B3 | 0.01

What follows are binders tested against M44-modified A NTAA target peptides (M44-A-P2-peptide) (assay: encoding assay; P2 H).

Binder | encoding yield
B1 | 0.05
B2 | 0.02
B3 | 0.01

The binders below were run against M44-modified F NTAA target peptides (M44-F-P2-peptide) (assay: encoding assay; P2 H;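 also: fraction of recording tags encoded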).

Binder | encoding yield
B1 | 0.02
B2 | 0.01
B3 | 0.01

These binders were tested against M44-modified I NTAA target peptides (M44-I-P2-peptide) (assay: encoding assay; P2 H).

Binder | encoding yield
B1 | 0.04
B2 | 0.02
B3 | 0.01

What follows are binders tested against M44-modified V NTAA target peptides (assay: encoding assay; P2 H;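 also: fraction of recording tags encoded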).

Binder | encoding yield
B1 | 0.03
B2 | 0.02
B3 | 0.01

Each binder was assayed against M44-modified W NTAA target peptides (assay: encoding assay; P2 H;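 also: fraction of recording tags encoded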).

Binder | encoding yield
B1 | 0.03
B2 | 0.03
B3 | 0.01

The binders below were run against M44-modified M NTAA target peptides (assay: encoding assay; P2 H).

Binder | encoding yield
B1 | 0.04
B2 | 0.03
B3 | 0.01

What follows are binders tested against M44-modified L NTAA target peptides (M44-L-P2-peptide) (assay: encoding assay; P2 H;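 also: fraction of recording tags encoded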).

Binder | encoding yield
B1 | 0.03
B2 | 0.02
B3 | 0

Each binder was assayed against M44-modified H NTAA target peptides (assay: encoding assay; P2 H).

Binder | encoding yield
B1 | 0.02
B2 | 0.02
B3 | 0.01

These binders were tested against M44-modified Y NTAA target peptides (M44-Y-P2-peptide) (assay: encoding assay; P2 H;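 also: fraction of recording tags encoded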).

Binder | encoding yield
B1 | 0.07
B2 | 0.05
B3 | 0.02

The binders below were run against M44-modified D NTAA target peptides (assay: encoding assay; P2 H;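 also: fraction of recording tags encoded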).

Binder | encoding yield
B1 | 0.04
B2 | 0.02
B3 | 0.01

The binders below were run against M44-modified N NTAA target peptides (assay: encoding assay; P2 H).

Binder | encoding yield
B1 | 0.05
B2 | 0.03
B3 | 0.01

Each binder was assayed against M44-modified T NTAA target peptides (assay: encoding assay; P2 H).

Binder | encoding yield
B1 | 0.04
B2 | 0.02
B3 | 0.01

Each binder was assayed against M44-modified F NTAA target peptides (M44-F-P2-peptide) (assay: encoding assay; P2 Y;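 also: fraction of recording tags encoded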).

Binder | encoding yield
B1 | 0.04
B2 | 0.13
B3 | 0.02

Each binder was assayed against M44-modified W NTAA target peptides (assay: encoding assay; P2 Y;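 also: fraction of recording tags encoded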).

Binder | encoding yield
B1 | 0.05
B2 | 0.15
B3 | 0.01

The binders below were run against M44-modified Y NTAA target peptides (M44-Y-P2-peptide) (assay: encoding assay; P2 Y;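 also: fraction of recording tags encoded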).

Binder | encoding yield
B1 | 0.04
B2 | 0.06
B3 | 0.02

What follows are binders tested against M44-modified N NTAA target peptides (assay: encoding assay; P2 Y).

Binder | encoding yield
B1 | 0.03
B2 | 0.02
B3 | 0.01

What follows are binders tested against M44-modified E NTAA target peptides (assay: encoding assay; P2 Y;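 also: fraction of recording tags encoded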).

Binder | encoding yield
B1 | 0.02
B2 | 0.03
B3 | 0.01

These binders were tested against M44-modified P NTAA target peptides (assay: encoding assay; P2 W;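 also: fraction of recording tags encoded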).

Binder | encoding yield
B1 | 0.04
B2 | 0.02
B3 | 0.01

Each binder was assayed against M44-modified Q NTAA target peptides (assay: encoding assay; P2 W).

Binder | encoding yield
B1 | 0.03
B2 | 0.03
B3 | 0.01

The binders below were run against M44-modified A NTAA target peptides (M44-A-P2-peptide) (assay: encoding assay; P2 W).

Binder | encoding yield
B1 | 0.28
B2 | 0.05
B3 | 0.01

The binders below were run against M44-modified F NTAA target peptides (M44-F-P2-peptide) (assay: encoding assay; P2 W;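 also: fraction of recording tags encoded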).

Binder | encoding yield
B1 | 0.18
B2 | 0.27
B3 | 0.09

Each binder was assayed against M44-modified I NTAA target peptides (M44-I-P2-peptide) (assay: encoding assay; P2 W).

Binder | encoding yield
B1 | 0.21
B2 | 0.25
B3 | 0.14

Each binder was assayed against M44-modified V NTAA target peptides (assay: encoding assay; P2 W;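 also: fraction of recording tags encoded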).

Binder | encoding yield
B1 | 0.22
B2 | 0.08
B3 | 0.03

Each binder was assayed against M44-modified W NTAA target peptides (assay: encoding assay; P2 W;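 also: fraction of recording tags encoded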).

Binder | encoding yield
B1 | 0.05
B2 | 0.17
B3 | 0.03

The binders below were run against M44-modified M NTAA target peptides (assay: encoding assay; P2 W).

Binder | encoding yield
B1 | 0.03
B2 | 0.05
B3 | 0.01

These binders were tested against M44-modified L NTAA target peptides (M44-L-P2-peptide) (assay: encoding assay; P2 W;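 also: fraction of recording tags encoded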).

Binder | encoding yield
B1 | 0.07
B2 | 0.17
B3 | 0.03

The binders below were run against M44-modified S NTAA target peptides (assay: encoding assay; P2 W).

Binder | encoding yield
B1 | 0.13
B2 | 0.07
B3 | 0.02

What follows are binders tested against M44-modified H NTAA target peptides (assay: encoding assay; P2 W).

Binder | encoding yield
B1 | 0.04
B2 | 0.04
B3 | 0.01

Each binder was assayed against M44-modified Y NTAA target peptides (M44-Y-P2-peptide) (assay: encoding assay; P2 W;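 also: fraction of recording tags encoded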).

Binder | encoding yield
B1 | 0.06
B2 | 0.11
B3 | 0.02

These binders were tested against M44-modified D NTAA target peptides (assay: encoding assay; P2 W;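 also: fraction of recording tags encoded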).

Binder | encoding yield
B1 | 0.02
B2 | 0.04
B3 | 0.01

Each binder was assayed against M44-modified G NTAA target peptides (M44-G-P2-peptide) (assay: encoding assay; P2 W;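 also: fraction of recording tags encoded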).

Binder | encoding yield
B1 | 0.02
B2 | 0.01
B3 | 0.01

The binders below were run against M44-modified N NTAA target peptides (assay: encoding assay; P2 W).

Binder | encoding yield
B1 | 0.05
B2 | 0.04
B3 | 0.01

What follows are binders tested against M44-modified T NTAA target peptides (assay: encoding assay; P2 W).

Binder | encoding yield
B1 | 0.13
B2 | 0.03
B3 | 0.01
